Values joined by “and” are separate entries in the source; they are usually repeats but may differ in a detail not shown here. Equal entries are not always repeated.
T1: B7H3 on B7H3-positive human tumour cells (A498, MCF-7, Caki-2, 786-0) (human, UniProt Q5ZPR3 29-534)
T1 sequence (looked up): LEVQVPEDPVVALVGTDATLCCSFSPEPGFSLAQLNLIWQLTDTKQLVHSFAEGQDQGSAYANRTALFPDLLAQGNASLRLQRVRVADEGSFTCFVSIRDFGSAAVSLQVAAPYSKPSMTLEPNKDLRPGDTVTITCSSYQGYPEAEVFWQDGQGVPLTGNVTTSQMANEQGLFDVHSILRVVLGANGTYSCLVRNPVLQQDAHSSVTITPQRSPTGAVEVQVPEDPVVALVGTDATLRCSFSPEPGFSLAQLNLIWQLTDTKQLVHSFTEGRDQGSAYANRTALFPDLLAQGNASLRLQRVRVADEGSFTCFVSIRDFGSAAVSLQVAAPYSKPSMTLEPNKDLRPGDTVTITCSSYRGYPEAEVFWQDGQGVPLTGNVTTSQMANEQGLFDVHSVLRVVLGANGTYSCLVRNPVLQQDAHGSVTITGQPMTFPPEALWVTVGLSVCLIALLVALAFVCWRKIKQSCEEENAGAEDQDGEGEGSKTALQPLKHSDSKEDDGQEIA

B1: Example 173L1: anti-B7H3 AK1A (TPP-3803) coupled with Intermediate F173 (antibody, human IgG1, kappa, V domains shown)
VH: QVKLQQSGAELVKPGASVKLSCKASGYTFTNYDINWVRQRPEQGLEWIGWIFPGDGSTQYNEKFKGKATLTTDTSSSTAYMQLSRLTSEDSAVYFCARQTTATWFAYWGQGTTVTVSS
VL: DIELTQSPTTLSVTPGDRVSLSCRASQSISDYLHWYQQKSHESPRLLIKYASQSISGIPSRFSGSGSGSDFTLSINSVEPEDVGVYYCQNGHSFPLTFGAGTKLELKR
modifications: KSP inhibitor-linker (Intermediate F173) on cysteine residues of the partially reduced antibody, sites not given; drug/mAb ratio 3.4
B2: Example 259L1: anti-B7H3 AK1A (TPP-3803) coupled with Intermediate F259 (antibody, human IgG1, kappa, V domains shown)
VH: B1 VH
VL: B1 VL
modifications: KSP inhibitor-linker (Intermediate F259) on cysteine residues of the partially reduced antibody, sites not given; drug/mAb ratio 3.0
B3: Example 274L1: anti-B7H3 AK1A (TPP-3803) coupled with Intermediate F274 (antibody, human IgG1, kappa, V domains shown)
VH: B1 VH
VL: B1 VL
modifications: KSP inhibitor-linker (Intermediate F274) on cysteine residues of the partially reduced antibody, sites not given; drug/mAb ratio 2.9
B4: Example 194: anti-B7H3 AK1A (TPP-3803) coupled with Intermediate F194 (antibody, human IgG1, kappa, V domains shown)
VH: B1 VH
VL: B1 VL
modifications: KSP inhibitor-linker (Intermediate F194) on lysine residues, sites not given; drug/mAb ratio 2.4
B5: Example 297L1 (Isomer 1): anti-B7H3 AK1A (TPP-3803) coupled with Intermediate F297 (antibody, human IgG1, kappa, V domains shown)
VH: B1 VH
VL: B1 VL
modifications: KSP inhibitor-linker (Intermediate F297) on cysteine residues of the partially reduced antibody, sites not given; drug/mAb ratio 2.4
B6: Example 240L1: anti-B7H3 AK1A (TPP-3803) coupled with Intermediate F240 (antibody, human IgG1, kappa, V domains shown)
VH: B1 VH
VL: B1 VL
modifications: KSP inhibitor-linker (Intermediate F240) on cysteine residues of the partially reduced antibody, sites not given; drug/mAb ratio 2.7
B7: Example 257L1: anti-B7H3 AK1A (TPP-3803) coupled with Intermediate F257 (antibody, human IgG1, kappa, V domains shown)
VH: B1 VH
VL: B1 VL
modifications: KSP inhibitor-linker (Intermediate F257) on cysteine residues of the partially reduced antibody, sites not given; drug/mAb ratio 2.4
B8: Example 270L1: anti-B7H3 AK1A (TPP-3803) coupled with Intermediate F270 (antibody, human IgG1, kappa, V domains shown)
VH: B1 VH
VL: B1 VL
modifications: KSP inhibitor-linker (Intermediate F270) on cysteine residues of the partially reduced antibody, sites not given; drug/mAb ratio 2.8
B9: Example 257L2: anti-B7H3 AK1B (TPP-5706) coupled with Intermediate F257 (antibody, human IgG1, kappa, V domains shown)
VH: QVQLQQPGAELVKPGASVKMSCKASGYTFTIYNVHWIKQTPGQGLEWMGTIFPGNGDTSYNQKFKDKATLTTDKSSKTAYMQLNSLTSEDSAVYYCARWDDGNVGFAHWGQGTLVTVSA
VL: DIQMTQSPASLSASVGETVTITCRASENINNYLTWFQQKQGKSPQLLVYHAKTLAEGVPSRFSGSGSGTQFSLKINSLQPEDFGSYYCQHHYGTPPTFGGGTKLEIKR
modifications: KSP inhibitor-linker (Intermediate F257) on cysteine residues of the partially reduced antibody, sites not given; drug/mAb ratio 4.5
B10: Example 281L2: anti-B7H3 AK1B (TPP-5706) coupled with Intermediate F281 (antibody, human IgG1, kappa, V domains shown)
VH: B9 VH
VL: B9 VL
modifications: KSP inhibitor-linker (Intermediate F281) on cysteine residues of the partially reduced antibody, sites not given; drug/mAb ratio 2.4
B11: Example 208L2: anti-B7H3 AK1B (TPP-5706) coupled with Intermediate F104 (stirred at pH 8 overnight) (antibody, human IgG1, kappa, V domains shown)
VH: B9 VH
VL: B9 VL
modifications: KSP inhibitor-linker (Intermediate F104) on cysteine residues of the partially reduced antibody, sites not given; drug/mAb ratio 2.9
B12: Example 284L2: anti-B7H3 AK1B (TPP-5706) coupled with Intermediate F284 (antibody, human IgG1, kappa, V domains shown)
VH: B9 VH
VL: B9 VL
modifications: KSP inhibitor-linker (Intermediate F284) on cysteine residues of the partially reduced antibody, sites not given; drug/mAb ratio 3.0
B13: Example 240L2: anti-B7H3 AK1B (TPP-5706) coupled with Intermediate F240 (antibody, human IgG1, kappa, V domains shown)
VH: B9 VH
VL: B9 VL
modifications: KSP inhibitor-linker (Intermediate F240) on cysteine residues of the partially reduced antibody, sites not given; drug/mAb ratio 3.5
B14: Example 275L2: anti-B7H3 AK1B (TPP-5706) coupled with Intermediate F275 (antibody, human IgG1, kappa, V domains shown)
VH: B9 VH
VL: B9 VL
modifications: KSP inhibitor-linker (Intermediate F275) on cysteine residues of the partially reduced antibody, sites not given; drug/mAb ratio 3.8
B15: Example 296L2: anti-B7H3 AK1B (TPP-5706) coupled with Intermediate F296 (antibody, human IgG1, kappa, V domains shown)
VH: B9 VH
VL: B9 VL
modifications: KSP inhibitor-linker (Intermediate F296) on cysteine residues of the partially reduced antibody, sites not given; drug/mAb ratio 3.2
B16: Example 194L2: anti-B7H3 AK1B (TPP-5706) coupled with Intermediate F194 (antibody, human IgG1, kappa, V domains shown)
VH: B9 VH
VL: B9 VL
modifications: KSP inhibitor-linker (Intermediate F194) on lysine residues, sites not given; drug/mAb ratio 2.9
B17: Example 297L2 (Isomer 1): anti-B7H3 AK1B (TPP-5706) coupled with Intermediate F297 (antibody, human IgG1, kappa, V domains shown)
VH: B9 VH
VL: B9 VL
modifications: KSP inhibitor-linker (Intermediate F297) on cysteine residues of the partially reduced antibody, sites not given; drug/mAb ratio 3.1

Target: T1, B7H3 on B7H3-positive human tumour …
Test: cell-based or functional assay

Binder | IC50 [M] CTG, A498 cells (B7H3-positive) | IC50 [M] CTG, MCF-7 cells (B7H3-positive) | IC50 [M] CTG, Caki-2 cells (B7H3-positive)
B1 | 6e-07 M | 4.98e-09 M | 
B2 |  | 4.57e-09 M | 
B3 |  | 1.86e-09 M | 
B4 |  | 6.43e-10 M | 
B5 |  | 8.93e-09 M | 
B6 | 2.35e-09 M | 7.25e-10 M | 
B7 |  | 4.49e-10 M | 
B8 | 6e-07 M | 7e-08 M | 
B9 | 1.16e-10 M and 1.37e-10 M | 7.37e-11 M and 8.63e-11 M | 1.5e-11 M and < 3e-11 M
B10 | 1.39e-08 M | 3.42e-08 M | 5.26e-09 M
B11 |  | 2.42e-10 M | 5.99e-09 M
B12 |  | 7.02e-10 M | 
B13 | 7.49e-10 M | 1.58e-10 M | > 3e-07 M
B14 | > 3e-07 M | 9.15e-11 M | > 3e-07 M
B15 | 6.22e-10 M | 1.63e-10 M | > 3e-07 M
B16 | 3.57e-10 M | 2.08e-10 M | 2.75e-10 M
B17 | > 3e-07 M | 7.56e-10 M | > 3e-07 M
